Test results as given in the supplement of paper PMC10065799, “High-throughput profiling of sequence recognition by tyrosine kinases and SH2 domains using bacterial peptide display” (eLife, 2023).

target: EPHB2 (UniProt P29323); experiment: phosphorylation enrichment, bacterial display (enrichment ratio); higher = better substrate or ligand; peptides without Tyr show the background
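Further: 11-residue human phosphosite peptides and single-mutation variants displayed on the E. coli surface, counted by deep sequencing, each peptide's frequency after selection divided by its frequency in the unselected input library; frequency after pTyr selection over input frequency; kinase dosed for 20-30% of maximal phosphorylation in three min.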

Sequence of EPHB2 (P29323 whole entry, looked up): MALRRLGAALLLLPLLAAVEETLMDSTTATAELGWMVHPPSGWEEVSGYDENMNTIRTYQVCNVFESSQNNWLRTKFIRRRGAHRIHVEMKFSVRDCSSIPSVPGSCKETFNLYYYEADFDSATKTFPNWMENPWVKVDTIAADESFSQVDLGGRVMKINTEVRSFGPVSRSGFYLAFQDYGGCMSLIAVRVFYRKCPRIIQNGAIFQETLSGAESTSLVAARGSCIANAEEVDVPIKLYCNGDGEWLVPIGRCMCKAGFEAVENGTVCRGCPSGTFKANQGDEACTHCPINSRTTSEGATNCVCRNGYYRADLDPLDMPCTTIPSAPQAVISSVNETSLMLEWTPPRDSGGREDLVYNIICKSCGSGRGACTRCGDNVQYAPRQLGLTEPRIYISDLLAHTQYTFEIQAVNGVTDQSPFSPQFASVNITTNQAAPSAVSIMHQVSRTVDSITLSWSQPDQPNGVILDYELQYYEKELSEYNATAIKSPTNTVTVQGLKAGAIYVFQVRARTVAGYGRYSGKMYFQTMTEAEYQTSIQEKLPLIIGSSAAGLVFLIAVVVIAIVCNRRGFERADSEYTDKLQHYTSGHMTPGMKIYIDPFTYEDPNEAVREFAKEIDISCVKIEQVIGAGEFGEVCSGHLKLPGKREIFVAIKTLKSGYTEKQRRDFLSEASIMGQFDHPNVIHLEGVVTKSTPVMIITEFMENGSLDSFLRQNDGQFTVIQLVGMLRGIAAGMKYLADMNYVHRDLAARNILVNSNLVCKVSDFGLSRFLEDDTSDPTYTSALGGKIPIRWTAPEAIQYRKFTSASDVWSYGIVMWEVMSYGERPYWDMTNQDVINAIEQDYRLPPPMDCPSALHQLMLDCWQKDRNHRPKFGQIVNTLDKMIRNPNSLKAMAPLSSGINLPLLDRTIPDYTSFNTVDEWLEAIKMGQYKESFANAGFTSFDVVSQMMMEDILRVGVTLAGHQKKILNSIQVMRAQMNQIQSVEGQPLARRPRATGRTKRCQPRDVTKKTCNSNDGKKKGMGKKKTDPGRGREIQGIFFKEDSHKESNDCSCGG

Row | Sequence | phosphorylation enrichment
1 | DRLASDLDKVR [KRT10_Y160_Y160D] | 0.471
2 | MDDKEYYSVHN [MET_Y1234_Y1230D] | 0.62
3 | ATHSRYRLNDF [CLDN14_Y233_G232R_YF] | 0.337
4 | VEQIHYIGQNE [HMOX2_Y140_R137Q] | 0.396
5 | LVMFIYDIFGM [SCN1A_Y1684_A1685D] | 2.92
6 | FSCLPYRRLAF [SLC52A2_Y305_G306R_YF] | 0.589
7 | ESMLRYDVFGG [STOX1_Y607_E608D_YF] | 0.631
8 | HNELYYEAAEH [VANGL1_Y345_E347A] | 1.06
9 | SQPASYQRRFL [PPIG_Y320_L324F] | 0.579
10 | VKPENYRRLDV [VHL_Y175_I180V] | 0.386
11 | KLKRSYSSPDI [USP8_Y717] | 0.688
12 | GTQGSYLLSRK [UGT3A1_Y123_C121G] | 0.411
13 | KMKGDYFRFLA [YWHAG_Y130_YF] | 0.509
14 | SNNFIYKTLGV [FAM83B_Y639_YF] | 0.485
15 | SVTGTYSPALN [TP53_Y126_C124G] | 0.424
16 | FSPGSYERETF [NF1_Y2192] | 0.548
17 | TQRPYYKGGGG [TYROBP_Y112] | 0.303

Row | Sequence | phosphorylation enrichment
18 | SGETKYNPTEA [NBEAL2_Y2748_E2747K] | 0.476
19 | YGCGMYSHLQG [LGR4_Y848_D844G] | 1.07
20 | RRQDLYSARDL [SART1_Y249] | 0.367
21 | ILGRYYETGSI [PAX2_Y73] | 0.594
22 | KSRQIYDAYIM [GRK3_Y109_R104K] | 7
23 | KVALLYKPFFF [POLE_Y100_P99L_YF] | 0.606
24 | PIAPVYAASMV [ACAT1_Y331] | 2.19
25 | IVEFAYNDKAV [PUM3_Y259_I264V_YF] | 0.632
26 | PQQLWYTHEKK [UBTF_Y207] | 0.327
27 | PVRIAYGRPRG [SUGP2_Y985_D986G] | 0.493
28 | QGCGIYKDFFR [PLA2G2D_Y82_S80G_YF] | 0.852
29 | GSIQQYIFKQE [PRG4_Y1271_YF] | 0.573
30 | LKVDVYGRSHK [FUT3_Y222] | 0.778
31 | EHFSYYGMKAV [SLC15A2_Y61_R57H] | 0.818
32 | PELIDYGKLRK [ACTN1_Y193] | 0.668
33 | PRAEWYRDDVL [MYOM2_Y317] | 0.725

test system: AncSZ; experiment: as above

Row | Sequence | phosphorylation enrichment
34 | DRLASDLDKVR [KRT10_Y160_Y160D] | 0.603
35 | MDDKEYYSVHN [MET_Y1234_Y1230D] | 1.99
36 | ATHSRYRLNDF [CLDN14_Y233_G232R_YF] | 0.419
37 | VEQIHYIGQNE [HMOX2_Y140_R137Q] | 0.665
38 | LVMFIYDIFGM [SCN1A_Y1684_A1685D] | 5.48
39 | FSCLPYRRLAF [SLC52A2_Y305_G306R_YF] | 0.992
40 | ESMLRYDVFGG [STOX1_Y607_E608D_YF] | 0.933
41 | HNELYYEAAEH [VANGL1_Y345_E347A] | 1.56
42 | SQPASYQRRFL [PPIG_Y320_L324F] | 0.768
43 | VKPENYRRLDV [VHL_Y175_I180V] | 0.532
44 | KLKRSYSSPDI [USP8_Y717] | 0.552
45 | GTQGSYLLSRK [UGT3A1_Y123_C121G] | 0.523
46 | KMKGDYFRFLA [YWHAG_Y130_YF] | 0.722
47 | SNNFIYKTLGV [FAM83B_Y639_YF] | 0.637
48 | SVTGTYSPALN [TP53_Y126_C124G] | 0.661
49 | FSPGSYERETF [NF1_Y2192] | 0.883
50 | TQRPYYKGGGG [TYROBP_Y112] | 0.49

Row | Sequence | phosphorylation enrichment
51 | SGETKYNPTEA [NBEAL2_Y2748_E2747K] | 0.767
52 | YGCGMYSHLQG [LGR4_Y848_D844G] | 1.2
53 | RRQDLYSARDL [SART1_Y249] | 1.45
54 | ILGRYYETGSI [PAX2_Y73] | 0.685
55 | KSRQIYDAYIM [GRK3_Y109_R104K] | 0.797
56 | KVALLYKPFFF [POLE_Y100_P99L_YF] | 1.15
57 | PIAPVYAASMV [ACAT1_Y331] | 0.837
58 | IVEFAYNDKAV [PUM3_Y259_I264V_YF] | 1.09
59 | PQQLWYTHEKK [UBTF_Y207] | 0.652
60 | PVRIAYGRPRG [SUGP2_Y985_D986G] | 1.01
61 | QGCGIYKDFFR [PLA2G2D_Y82_S80G_YF] | 1.08
62 | GSIQQYIFKQE [PRG4_Y1271_YF] | 0.836
63 | LKVDVYGRSHK [FUT3_Y222] | 1
64 | EHFSYYGMKAV [SLC15A2_Y61_R57H] | 1.01
65 | PELIDYGKLRK [ACTN1_Y193] | 0.86
66 | PRAEWYRDDVL [MYOM2_Y317] | 1.31

target: Fyn (UniProt P06241); experiment: as above
Sequence (P06241 whole entry, looked up): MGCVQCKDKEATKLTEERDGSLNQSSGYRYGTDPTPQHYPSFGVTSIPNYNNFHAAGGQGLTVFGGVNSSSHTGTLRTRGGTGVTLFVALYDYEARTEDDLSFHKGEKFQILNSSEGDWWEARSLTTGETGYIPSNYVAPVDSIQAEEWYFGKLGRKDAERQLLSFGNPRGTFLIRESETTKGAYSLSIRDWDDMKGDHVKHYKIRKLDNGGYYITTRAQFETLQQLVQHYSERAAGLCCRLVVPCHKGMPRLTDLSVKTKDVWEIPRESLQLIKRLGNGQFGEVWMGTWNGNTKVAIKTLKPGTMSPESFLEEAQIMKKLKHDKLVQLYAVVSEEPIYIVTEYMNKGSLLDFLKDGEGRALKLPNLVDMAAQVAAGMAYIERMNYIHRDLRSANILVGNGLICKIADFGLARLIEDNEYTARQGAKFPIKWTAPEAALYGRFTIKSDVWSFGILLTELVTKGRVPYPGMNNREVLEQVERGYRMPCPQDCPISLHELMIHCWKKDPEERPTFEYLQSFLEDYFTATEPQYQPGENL

Row | Sequence | phosphorylation enrichment
67 | DRLASDLDKVR [KRT10_Y160_Y160D] | 0.448
68 | MDDKEYYSVHN [MET_Y1234_Y1230D] | 0.575
69 | ATHSRYRLNDF [CLDN14_Y233_G232R_YF] | 0.329
70 | VEQIHYIGQNE [HMOX2_Y140_R137Q] | 0.462
71 | LVMFIYDIFGM [SCN1A_Y1684_A1685D] | 8.72
72 | FSCLPYRRLAF [SLC52A2_Y305_G306R_YF] | 0.559
73 | ESMLRYDVFGG [STOX1_Y607_E608D_YF] | 0.636
74 | HNELYYEAAEH [VANGL1_Y345_E347A] | 1.52
75 | SQPASYQRRFL [PPIG_Y320_L324F] | 0.425
76 | VKPENYRRLDV [VHL_Y175_I180V] | 0.461
77 | KLKRSYSSPDI [USP8_Y717] | 0.322
78 | GTQGSYLLSRK [UGT3A1_Y123_C121G] | 0.4
79 | KMKGDYFRFLA [YWHAG_Y130_YF] | 1.01
80 | SNNFIYKTLGV [FAM83B_Y639_YF] | 0.506
81 | SVTGTYSPALN [TP53_Y126_C124G] | 0.584
82 | FSPGSYERETF [NF1_Y2192] | 0.429
83 | TQRPYYKGGGG [TYROBP_Y112] | 0.417

Row | Sequence | phosphorylation enrichment
84 | SGETKYNPTEA [NBEAL2_Y2748_E2747K] | 0.459
85 | YGCGMYSHLQG [LGR4_Y848_D844G] | 1.51
86 | RRQDLYSARDL [SART1_Y249] | 0.972
87 | ILGRYYETGSI [PAX2_Y73] | 0.562
88 | KSRQIYDAYIM [GRK3_Y109_R104K] | 11.1
89 | KVALLYKPFFF [POLE_Y100_P99L_YF] | 0.827
90 | PIAPVYAASMV [ACAT1_Y331] | 14.3
91 | IVEFAYNDKAV [PUM3_Y259_I264V_YF] | 0.52
92 | PQQLWYTHEKK [UBTF_Y207] | 0.409
93 | PVRIAYGRPRG [SUGP2_Y985_D986G] | 0.639
94 | QGCGIYKDFFR [PLA2G2D_Y82_S80G_YF] | 5.88
95 | GSIQQYIFKQE [PRG4_Y1271_YF] | 0.429
96 | LKVDVYGRSHK [FUT3_Y222] | 0.324
97 | EHFSYYGMKAV [SLC15A2_Y61_R57H] | 1.71
98 | PELIDYGKLRK [ACTN1_Y193] | 0.587
99 | PRAEWYRDDVL [MYOM2_Y317] | 0.572

target: Fes (UniProt P07332); experiment: as above
Sequence (P07332 whole entry, looked up): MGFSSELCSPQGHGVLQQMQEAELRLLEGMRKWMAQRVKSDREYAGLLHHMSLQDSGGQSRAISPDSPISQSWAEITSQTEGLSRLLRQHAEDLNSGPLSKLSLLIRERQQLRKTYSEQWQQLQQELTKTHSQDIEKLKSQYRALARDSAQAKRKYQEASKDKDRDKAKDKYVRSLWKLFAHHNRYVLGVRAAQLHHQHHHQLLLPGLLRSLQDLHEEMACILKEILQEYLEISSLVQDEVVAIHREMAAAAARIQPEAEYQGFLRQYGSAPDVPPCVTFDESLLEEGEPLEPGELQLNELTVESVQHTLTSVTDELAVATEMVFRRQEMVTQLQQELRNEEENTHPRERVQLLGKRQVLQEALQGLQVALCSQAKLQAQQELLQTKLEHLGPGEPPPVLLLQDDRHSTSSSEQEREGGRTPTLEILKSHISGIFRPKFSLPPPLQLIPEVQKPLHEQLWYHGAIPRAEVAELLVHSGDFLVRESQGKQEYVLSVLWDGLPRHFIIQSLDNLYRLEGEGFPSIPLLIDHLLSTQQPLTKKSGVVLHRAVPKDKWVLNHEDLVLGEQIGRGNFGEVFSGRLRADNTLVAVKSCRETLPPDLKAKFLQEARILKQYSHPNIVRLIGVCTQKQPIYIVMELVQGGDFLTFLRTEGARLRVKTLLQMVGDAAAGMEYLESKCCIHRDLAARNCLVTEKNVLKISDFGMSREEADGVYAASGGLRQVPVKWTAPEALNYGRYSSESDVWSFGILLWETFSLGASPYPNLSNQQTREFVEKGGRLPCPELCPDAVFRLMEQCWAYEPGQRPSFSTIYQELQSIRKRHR

Row | Sequence | phosphorylation enrichment
100 | DRLASDLDKVR [KRT10_Y160_Y160D] | 0.661
101 | MDDKEYYSVHN [MET_Y1234_Y1230D] | 1.06
102 | ATHSRYRLNDF [CLDN14_Y233_G232R_YF] | 0.706
103 | VEQIHYIGQNE [HMOX2_Y140_R137Q] | 0.663
104 | LVMFIYDIFGM [SCN1A_Y1684_A1685D] | 3.08
105 | FSCLPYRRLAF [SLC52A2_Y305_G306R_YF] | 0.826
106 | ESMLRYDVFGG [STOX1_Y607_E608D_YF] | 0.846
107 | HNELYYEAAEH [VANGL1_Y345_E347A] | 1.44
108 | SQPASYQRRFL [PPIG_Y320_L324F] | 0.667
109 | VKPENYRRLDV [VHL_Y175_I180V] | 0.593
110 | KLKRSYSSPDI [USP8_Y717] | 0.613
111 | GTQGSYLLSRK [UGT3A1_Y123_C121G] | 0.56
112 | KMKGDYFRFLA [YWHAG_Y130_YF] | 0.689
113 | SNNFIYKTLGV [FAM83B_Y639_YF] | 0.734
114 | SVTGTYSPALN [TP53_Y126_C124G] | 0.769
115 | FSPGSYERETF [NF1_Y2192] | 0.856
116 | TQRPYYKGGGG [TYROBP_Y112] | 0.666

Row | Sequence | phosphorylation enrichment
117 | SGETKYNPTEA [NBEAL2_Y2748_E2747K] | 0.868
118 | YGCGMYSHLQG [LGR4_Y848_D844G] | 1.07
119 | RRQDLYSARDL [SART1_Y249] | 0.744
120 | ILGRYYETGSI [PAX2_Y73] | 0.68
121 | KSRQIYDAYIM [GRK3_Y109_R104K] | 0.735
122 | KVALLYKPFFF [POLE_Y100_P99L_YF] | 1.17
123 | PIAPVYAASMV [ACAT1_Y331] | 1.07
124 | IVEFAYNDKAV [PUM3_Y259_I264V_YF] | 0.938
125 | PQQLWYTHEKK [UBTF_Y207] | 0.792
126 | PVRIAYGRPRG [SUGP2_Y985_D986G] | 0.523
127 | QGCGIYKDFFR [PLA2G2D_Y82_S80G_YF] | 1.49
128 | GSIQQYIFKQE [PRG4_Y1271_YF] | 0.738
129 | LKVDVYGRSHK [FUT3_Y222] | 0.869
130 | EHFSYYGMKAV [SLC15A2_Y61_R57H] | 0.765
131 | PELIDYGKLRK [ACTN1_Y193] | 0.8
132 | PRAEWYRDDVL [MYOM2_Y317] | 1.46
